# Results published in the DeepSol protein solubility set.
# Assay: soluble on expression in E. coli; label from the status in PepcDB or PDB records
row,Sequence,soluble on expression in E. coli
1,MNILFAVSECVPFVKSGGLADVAGALPKELKKLGVDVRIILPNYSLIPQKLRDGCTLHKVINVPLGWRNQYCGILKGEQDGITYYLIDNEYYFKRDSLYGHYDDGERFSYFSKAVLECIPHLDFEVDVLHSHDWHTAMVNFLLREKYQDNPLYERIKTVYTIHNLQFQGVFPPEVIYDLLELGDEYFHSEQLEFYGNVNFMKGGIIASDQITAVSPTYKEEIQYEFFGEKLDGLLRKYNDKLSGIVNGIDTSVYNPETDSYIKAQYDAESLYEKSENKRALQRYFGLPEKEDTPIISMVTRLTKQKGLDLVRTVFREIMEEDVQCIILGSGDSEYEQFFEWMAYEYPEKVKVYIGFNEELAHQVYAGSDLFLMPSLFEPCGLGQLIALAYGTIPIVRETGGLNDTVHSYDEETGEGNGFSFTNFNAHDMLHTIHRAIEFYHDKPVWEQLVKQAMTEDYSWEQSALAYKELYKSLME,soluble
2,MNIVVLISGNGSNLQAIIDACKTNKIKGTVRAVFSNKADAFGLERARQAGIATHTLIASAFDSREAYDRALIHEIDMYAPDVVVLAGFMRILSPAFVSHYAGRLLNIHPSLLPKYPGLHTHRQALENGDEEHGTSVHFVTDELDGGPVILQAKVPVFAGDSEDDITARVQTQEHAIYPLVISWFADGRLKMHENAAWLDGQRLPPQGYAADE,soluble
3,MNIYAFDFDEIESQEDFYRDFSQTFGLAKDKVRDLDSLWDVLMNDVLPLPLEIEFVHLGEKTRRRFGALILLFDEAEEELEGHLRFNVRH,not soluble
4,MNKGRIIQVMGPVVDIQFESGQLPDIYNAITIERPQGGTLTVEAAVHLGDNVVRCVAMASTDGLVRGLEAVDTGAPISVPVGKATLGRVFNVLGEPIDEQGEVNAEERHPIHRPAPEFEELSTADEILETGIKVIDLLAPYAKGGKIGLFGGAGVGKTVLIQELINNVAQEHGGLSVFAGVGERTREGNDLYHEMKDSGVISKTSMVFGQMNEPPGARLRVALTGLTMAEYFRDREGQDVLLFIDNIFRFTQAGSEVSALLGRMPSAVGYQPTLATEMGQLQERITSTKKGSITSIQAIYVPADDYTDPAPATTFAHLDATTNLERKLAEMGIYPAVDPLASTSRILSPAVVGEEHYRVARGVQQVLQRYNDLQDIIAILGMDELSDEDKLIVARARKIQRFLSQPFHVAEQFTGMPGKYVPVKETVRGFKEILEGKHDNLPEEAFYMVGTIDEAVEKAKKL,soluble
5,MNKKELIDRVAKKAGAKKKDVKLILDTILETITEALAKGEKVQIVGFGSFEVRKAAARKGVNPQTRKPITIPERKVPKFKPGKALKEKVK,soluble
6,MNKKILVVDDEESIVTLLQYNLERSGYDVITASDGEEALKKAETEKPDLIVLDVMLPKLDGIEVCKQLRQQKLMFPILMLTAKDEEFDKVLGLELGADDYMTKPFSPREVNARVKAILRRSEIRAPSSEMKNDEMEGQIVIGDLKILPDHYEAYFKESQLELTPKEFELLLYLGRHKGRVLTRDLLLSAVWNYDFAGDTRIVDVHISHLRDKIENNTKKPIYIKTIRGLGYKLEEPKMNE,soluble
7,MNKKIYVGMTADIMHPGLIHIIHEATKYGDVIVGLLTDKAIAEHKRLPYLTYDQRKEVVENIKGVCEVVPQEDWSYVPNLEKLKPDYIIHGDDWKTGPLREVREQVFEVMNAQGGKVIEIPYTRGINSSSLDKDIKAIGTTPDVRLKSLRRLIQAKPVVRILEAHDGLCGLIIENLEVQKGDKREVFDGMWSSSLTDSTSKGKPDIEAVDLTTRLQDLNNILECTTKPIIFDGDTGGKIEHFVFTVRTLERHGISAVIIEDKVGLKKNSLFGTDAIQTQDSIEGFCDKIRAGKNAQVTGDFMIIARIESLIAGKPMSDALERAYAYVQAGADGIMIHSKDKSGEDIREFCRTFRKEYAHVPIVVVPTTYDHVHESELHEWGANVVIYANHLLRAAYPAMMNVARTILENERAEEVRPLCMPIKEILELIPGTK,not soluble
8,MNKKSSSMVNMPAPREPINQKIDTNNALVLNHNAIYEQRLAEITQSNTCDKAIVTVNPYGTAPLSLYLGVWMDEAAALEINVVDSEATTEEVRYQYDVHPGANLIPVCGMVSAVNNQITLRLASQIVGQYTVMTDALPPTDSANVSLGFPIISVSCPAQQASLMEEGLYFSTYFDRYNLAFDHNGIVRWYVSQEIPSYNFVRMDNGHFLATSQGINHCLNMYEFDIMGRVYTVYLLDNEFHHSILPIENNLAIAPSEYSNGRPDGYSTGKDGVSIINLSTGLEVAYYDMLYVMDYSRSPRPSGSAPGQDVSMDDWLHINQSYINEPNNLLICSGRHQSAIFGVNVDSGELRFIMANHEDWSDEFKQYLLTPVDDDGVPLYDLTSPGGIDAADKNFWTWGQHNIVEIPNDEPGILEFMVFDNGNYRSREDAKSLLPLDNFSRVVQFKINLNTMTVTRPYEYGKTEVGNRGYSSFVSAKHLLTNGHLVIHFGATTVDEFEHTITAQPGSSDLVDPDEGQQALGRLVLQEINKETKEVLFEAMVTSGYFKNEETNGTNYRYDISAFRVYKMPLFA,not soluble
9,MNKLNICIDIDGTITSPYHFLPYLNDIFNKNITEAECITHNWEELYGSGIRDVYAEFNNKYIHSYDEAKIVEGATEVISTLSKGHNLSFVTARHECLTDVTKNWLSRQGFSDIDVYLLGSDYKVEKARELSCDIFIEDNPLNSVQLADDGVKVILLDTNYNKDVKHQNIVRVSNWIDIEKIIKQGI,not soluble
10,MNKRIVICADGTWNRPEKDLKVDFPTNVLRLARAISPIAADGKPQQVFYDWGVGSYYDEVIGGATGRGLHKNIMDGYRYIVQNYSPGDEIYLFGFSRGAYTVRCLCGLINNCGILKRPEARLIQQAFDHYKKSSAPFAPSGDKSVEFRHEHCHESREIKFVGVWDTVGAMGIPISFLGLFEDKDEFYDTKIGRNVRVARHALAIDEHRSDFEPTIWQLRDNMDMQQVWFAGAHSNVGGSYLPDKDGSLLSDNALAWMIAEAERFNLSLEPHLTAGLEHHHHHH,not soluble
11,MNKTELIKAIAQDTGLTQVSVSKMLASFEKIITETVAKGDKVQLTGFLNIKPVARQARKGFNPQTQEALEIAPSVGVSVKPGESLKKAAEGLKYEDFAK,soluble
12,MNKTPRVGFVSLGCPKAASDSEQILTRLRAEGYEIAPSYDGADLVVVNTCGFIDSAVEESLDAIGEALNENGKVIVTGCLGAKGDVVRDVHPSVLAVTGPHATEEVMSAVHTHLPKPHDPFVDLVPDIGVRLTPKHYAYLKISEGCNHRCTFCIIPSMRGDLESRPIHDVLREAESLAKAGVKEILVISQDTSAYGVDTKYKLGFHNGRPVKTRMTELCEELGRHGIWVRLHYVYPYPHVDEVIPLMRDGKILPYLDIPFQHASQKVLKLMKRPANSDNVLARIKKWREICPELVIRSTFIVGFPGETEEDFEELLAFIREAELDRVGCFTYSPVEGATANELPNPVPEDVKEARKERFMAVQAEISARRLERRVGQTLQVLVDEIDDEGTAVCRSYADAPEIDGLVFVEDAAGMQPGEFYQVEIVDCSEHDLWGERRLEHHHHHH,soluble
13,MNKVKILAIVGSLRKGSYNRQLALAAKEIVKDTADFTLLDYQDVPLMNEDIEYPAPDAVKRVREEVKAADGIWFFTPEYNHFFPGVLKNLIDWLSRPVSENEPQVLAGKPAAISGISLGMSGTAIAQDHLVTLISFLDMKVMNVPRVTVPNAWQYVDDQGKLIMESIYPHLEKQAKAFVNFIQAKCL,not soluble
14,MNLDDKSLFLDAMEDVQPLKRATDVHWHPTRNQRAPQRIDTLQLDNFLTTGFLDIIPLSQPLEFRREGLQHGVLDKLRSGKYPQQASLNLLRQPVEECRKMVFSFIQQALADGLRNVLIIHGKGRDDKSHANIVRSYVARWLTEFDDVQAYCTALPHHGGSGACYVALRKTAQAKQENWERHAKRSR,soluble
15,MNLFYNPKYVGDVAFLQIEPVEGELNYNKKGNVVEITNEGNVVGYNIFEISKDITIEEKGHIKLTDELVNVFQKRISEAGFDYKLNADLSPKFVVGYVETKDKHPDADKLSVLNVNVGNDTLQIVCGAPNVEAGQKVVVAKVGAVMPSGMVIKDAELRGVASSGMICSMKELNLPNAPEEKGIMVLNDSYEIGQAFFELEHHHHHH,soluble
16,MNLKAMDAILEDCCDIVCSDYLPSAMIKSMCIVAERINNLNKAVSLFTSNPAKAVGIYDERGSIKENKKADLVLVDIDSEYPKVVNTIVNGKTVYKRELEHHHHHH,not soluble
17,MNLKDKILGVAKELFIKNGYNATTTGEIVKLSESSKGNLYYHFKTKENLFLEILNIEESKWQEQWKKEQIKCKTNREKFYLYNELSLTTEYYYPLQNAIIEFYTEYYKTNSINEKMNKLENKYIDAYHVIFKEGNLNGEWSINDVNAVSKIAANAVNGIVTFTHEQNINERIKLMNKFSQIFLNGLSKHHHHHH,soluble
18,MNLLFQSYLDNVGVQIVRQMRSGERFLKIWSQTVEEIVSYVTVNF,soluble
19,MNLPKKVRLVEVGPRDGLQNEKQPIEVADKIRLVDDLSAAGLDYIEVGSFVSPKWVPQMAGSAEVFAGIRQRPGVTYAALAPNLKGFEAALESGVKEVAVFAAASEAFSQRNINCSIKDSLERFVPVLEAARQHQVRVRGYISCVLGCPYDGDVDPRQVAWVARELQQMGCYEVSLGDTIGVGTAGATRRLIEAVASEVPRERLAGHFHDTYGQALANIYASLLEGIAVFDSSVAGLGGCPYAKGATGNVASEDVLYLLNGLEIHTGVDMHALVDAGQRICAVLGKSNGSRAAKALLAKA,soluble
20,MNLRSVFTVEQQRILQRYYENGMTNQSKNCFQLILQCAQETKLDFSVVRTWVGNKRRKMSSKNSESGTATTGTSLSAPDITVRNVVNIARPSSQQSSWTSANNDVIVTGIYSPASSSSRQGTNKHTDTQITEAHKIPIQKTATKNDTEFQLHIPVQRQVAHCKNASLLLGEKTIILSRQTSVLNAGNSVFNHAKKNYGNSSVQASEMTVPQKPSVCHRPCKIEPVGIQRSYKPEHTGPALHNLCGQKPTIRDPYCRTQNLEIREVFSLAVSDYPQRILGGNAPQKPSSAEGNCLSIAMETGDAEDEYAREEELASMRAQIPSYSRFYESGSSLRAENQSTTLPGPGRNMPNSQMVNIRDMSDNVLYQNRNYHLTPRTSLHTASSTMYSNTNPLRSNFSPHFASSNQLRLSQNQNNYQISGNLTVPWITGCSRKRALQDRTQFSDRDLATLKKYWDNGMTSLGSVCREKIEAVATELNVDCEIVRTWIGNRRRKYRLMGIEVPPPRGGPADFSEQPESGSLSALTPGEEAGPEVGEDNDRNDEVSICLSEGSSQEEPNEVVPNDARAHKEEDHHAVTTDNVKIEIIDDEESDMISNSEVEQVNSFLDYKNEEVKFIENELEIQKQKYFKLQTFVRSLILAMKADDKEQQQALLSDLPPELEEMDFNHASLEPDDTSFSVSSLSEKNVSESL,soluble
21,MNLVGIVGTNSERSTNRKLLRFMAEHFAPQAAIEVLEIKDLPAFDEPENKTAPAAVTAFSKKIAAADGVIIATPEYNHTIPAPLGSALEWIAYTSRVLVNKPVMIVGCSLGALGTSRAQAHLRQILDAPELKARVMPGTEFFLGHSEHVLDDDFNLNNPEKVAELEEHFTEFQDFVIVTNQIVKQADTDRKKAFVWEAGELEHHHHHH,soluble
22,MNNLIKAINELKKEKNAIILGHYYQKGEIQDIADYVGDSLALAQLAAKTEADIIVMCGVHFMGETAKVLCPDKKVLVPDMEAGCSLADSCPADQFAQFVKEHPGHTVISYVNTTAAVKAVTDVVVTSTNARQIVESFPKDEKIIFGPDRNLGNYINSVTNRNMLLWDGACHVHEQFSVEKIVELKTQHPEALVLAHPECKSTVLKLADVVGSTAALLKYAVNHPENTYIVATESGILHEMQKKCPQTTFIPAPPNDSTCGCNECSFMRLNTLEKLYECLKNESPEITVDPEIAEKAVRPIQRMLEISAKLGL,not soluble
23,MNNNHYTYRVLWSQEDEEYVGLCAEFPSLSWLDAQAEKALKGIMDLVSEVVEDMQHNGEEVPVPLSHGKYSGKFQLRIPPELHRKLAIQAAENGVSLNRYISSKL,not soluble
